According to paper PMC2169463:

Biological target: GST-BLM fusion protein (human), P54132
Assay: pull-down
Conditions: remark: other sources report otherwise

Chain of GST-BLM fusion protein (human), P54132 (P54132 whole entry, the tested form may be a part): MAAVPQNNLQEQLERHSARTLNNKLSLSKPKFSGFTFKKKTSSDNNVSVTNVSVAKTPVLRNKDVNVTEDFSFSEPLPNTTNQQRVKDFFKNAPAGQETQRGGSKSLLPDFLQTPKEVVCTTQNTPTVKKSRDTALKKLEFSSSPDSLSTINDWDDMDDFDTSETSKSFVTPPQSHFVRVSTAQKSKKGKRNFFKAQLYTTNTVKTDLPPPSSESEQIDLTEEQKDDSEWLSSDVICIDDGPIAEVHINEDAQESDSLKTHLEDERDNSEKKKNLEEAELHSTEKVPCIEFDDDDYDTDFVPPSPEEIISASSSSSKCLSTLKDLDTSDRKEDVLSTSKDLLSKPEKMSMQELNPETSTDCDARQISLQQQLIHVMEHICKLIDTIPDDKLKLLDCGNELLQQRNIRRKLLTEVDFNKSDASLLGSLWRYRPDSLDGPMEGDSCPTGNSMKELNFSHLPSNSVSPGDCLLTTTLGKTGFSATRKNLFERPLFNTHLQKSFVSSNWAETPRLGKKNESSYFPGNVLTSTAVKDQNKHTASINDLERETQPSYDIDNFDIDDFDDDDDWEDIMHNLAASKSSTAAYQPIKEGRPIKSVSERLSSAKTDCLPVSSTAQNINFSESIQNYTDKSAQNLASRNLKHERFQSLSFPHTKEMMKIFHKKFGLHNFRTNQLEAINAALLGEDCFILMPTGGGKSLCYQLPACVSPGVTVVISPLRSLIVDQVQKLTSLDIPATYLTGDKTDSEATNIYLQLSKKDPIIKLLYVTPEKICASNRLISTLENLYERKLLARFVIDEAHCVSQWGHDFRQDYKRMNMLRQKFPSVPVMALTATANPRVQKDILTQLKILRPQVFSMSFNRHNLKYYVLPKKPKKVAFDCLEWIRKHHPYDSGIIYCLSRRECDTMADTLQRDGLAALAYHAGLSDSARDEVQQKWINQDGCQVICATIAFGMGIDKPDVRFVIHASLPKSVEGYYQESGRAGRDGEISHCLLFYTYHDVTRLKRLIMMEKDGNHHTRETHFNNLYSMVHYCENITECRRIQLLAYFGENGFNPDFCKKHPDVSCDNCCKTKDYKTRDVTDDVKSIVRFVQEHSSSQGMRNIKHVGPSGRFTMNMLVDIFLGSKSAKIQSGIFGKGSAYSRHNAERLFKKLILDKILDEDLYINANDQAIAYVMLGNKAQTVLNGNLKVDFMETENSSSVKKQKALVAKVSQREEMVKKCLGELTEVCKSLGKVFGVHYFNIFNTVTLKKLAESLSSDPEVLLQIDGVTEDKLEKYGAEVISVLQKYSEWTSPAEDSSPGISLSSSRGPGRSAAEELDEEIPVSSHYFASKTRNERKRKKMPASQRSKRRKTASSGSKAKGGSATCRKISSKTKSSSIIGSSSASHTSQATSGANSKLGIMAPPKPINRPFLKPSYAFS

percent of the hRAD51 in the lysate retained: 30 to 40%
B1: hRAD51, Q06609 1-339 (natural protein)
chain: MAMQMQLEANADTSVEEESFGPQPISRLEQCGINANDVKKLEEAGFHTVEAVAYAPKKELINIKGISEAKADKILAEAAKLVPMGFTTATEFHQRRSEIIQITTGSKELDKLLQGGIETGSITEMFGEFRTGKTQICHTLAVTCQLPIDRGGGEGKAMYIDTEGTFRPERLLAVAERYGLSGSDVLDNVAYARAFNTDHQTQLLYQASAMMVESRYALLIVDSATALYRTDYSGRGELSARQMHLARFLRMLLRLADEFGVAVVITNQVVAQVDGAAMFAADPKKPIGGNIIAHASTTRLYLRKGRGETRICKIYDSPCLPEAEAMFAINADGVGDAKD
